Experimental data reported in PMC2718698, “The TCL1A Oncoprotein Interacts Directly with the NF-κB Inhibitor IκB” (PLoS ONE, 2009).
One block for each molecule: values may come before it.

Legend:
[1] = target: all-cysteine-to-serine (7CS) mutant of the IκBα ankyrin domain, IκB(67–302)7CS (human) (UniProt P25963); assay: ITC; TCL1A (470 µM) injected into IκB_ank^7CS (45 µM) in the cell; 20°C; 10 mM Tris pH 7.4, 300 mM NaCl, 1 mM β-mercapto ethanol
[2] = target: T1, T cell leukaemia/lymphoma 1A (TCL1A), purified recombinant human protein (human, UniProt P56279 1-114); assay: ITC; AKT_PH (490 µM) injected into TCL1A (40 µM) or into equimolar TCL1A and IκB_ank^7CS in the cell; 20°C; 20 mM sodium phosphate pH 7.1, 300 mM NaCl, 2 mM EGTA, 1 mM β-mercapto ethanol; settings: both partners purified
T1 construct: TCL1A, human; 7 N-terminal residues are not seen in the crystal structure 1JSG

[3] = target: 1:1 TCL1A:IκB_ank^7CS complex (human) (UniProt P56279); assay: as above

T1 sequence (P56279 whole entry): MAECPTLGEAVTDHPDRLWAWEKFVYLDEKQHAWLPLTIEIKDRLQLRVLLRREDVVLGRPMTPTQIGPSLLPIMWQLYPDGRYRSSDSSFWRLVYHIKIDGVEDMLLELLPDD

- dH [1]: -12.7 kcal/mol
- stoichiometry N [1]: 0.9
Molecule: T cell leukaemia/lymphoma 1A (TCL1A), purified recombinant human protein (from UniProt P56279 1-114) (natural protein)

- dH [2]: -14.6 ± 0.598 kcal/mol
- stoichiometry N [2]: 0.7 ± 0.3
- Kd [3]: 5.1 µM
- dH [3]: -9.32 kcal/mol
- stoichiometry N [3]: 0.7
B1: AKTβ PH domain, human AKTβ PH(1–118) (domain or fragment, UniProt P31751 1-118, looked up)
chain: MNEVSVIKEGWLHKRGEYIKTWRPRYFLLKSDGSFIGYKERPEAPDQTLPPLNNFSVAECQLMKTERPRPNTFVIRCLQWTTVIERTFHVDSPDEREEWMRAIQMVANSLKQRAPGED
